This passage reports Ligand EC50 [M], activation of IMR-32/STAT3-luc cells (luciferase) results from US20260201045A1.

For the assay, the target named is full length human CNTFR (hCNTFR, amino acids 1-372, UniProtKB/Swiss-Prot Accession #P26992) (human) (UniProt P26992). The assay can be described thus: cell-based or functional assay.
Chain of full length human CNTFR (P26992 23-342 limits assumed, one chain of several): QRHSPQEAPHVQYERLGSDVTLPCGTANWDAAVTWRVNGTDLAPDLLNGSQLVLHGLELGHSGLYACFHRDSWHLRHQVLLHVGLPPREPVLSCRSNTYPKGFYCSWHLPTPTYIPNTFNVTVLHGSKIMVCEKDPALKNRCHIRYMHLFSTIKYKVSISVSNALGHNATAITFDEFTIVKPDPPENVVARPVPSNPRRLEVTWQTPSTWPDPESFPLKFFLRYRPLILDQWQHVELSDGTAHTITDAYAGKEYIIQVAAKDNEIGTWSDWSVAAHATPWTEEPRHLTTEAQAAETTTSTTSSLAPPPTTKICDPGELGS

In turn, “human Ciliary Neurotrophic Factor (hCNTF, R&D Systems, 257-NT) (from UniProt P26441 2-200) (ligand)” showed a Ligand EC50 [M], activation of IMR-32/STAT3-luc cells (luciferase) of 2.26e-12 M. As for “human Cytokine-like Factor 1/human Cardiotrophin-like cytokine complex (hCLF-1/CLC, R&D Systems 1151-CL) (from UniProt O75462 38-422; Q9UBD9 28-225) (ligand)”, the figure is 9.63e-11 M.
